Laboratory results as given in patent US20090117097A1 (Chugai, published 2009).
Each block holds one binder with its values, some of them ahead of it.

Legend:
[1] = target: T1, mouse Mp1 expressed on CHO cells (CHO-mouse Mp1) (mouse, UniProt Q08351 26-625); test: flow cytometry on CHO cells expressing Mp1
T1 construct: whole, on cells; also called mouse Mp1-expressing CHO cell line
T1 sequence (looked up): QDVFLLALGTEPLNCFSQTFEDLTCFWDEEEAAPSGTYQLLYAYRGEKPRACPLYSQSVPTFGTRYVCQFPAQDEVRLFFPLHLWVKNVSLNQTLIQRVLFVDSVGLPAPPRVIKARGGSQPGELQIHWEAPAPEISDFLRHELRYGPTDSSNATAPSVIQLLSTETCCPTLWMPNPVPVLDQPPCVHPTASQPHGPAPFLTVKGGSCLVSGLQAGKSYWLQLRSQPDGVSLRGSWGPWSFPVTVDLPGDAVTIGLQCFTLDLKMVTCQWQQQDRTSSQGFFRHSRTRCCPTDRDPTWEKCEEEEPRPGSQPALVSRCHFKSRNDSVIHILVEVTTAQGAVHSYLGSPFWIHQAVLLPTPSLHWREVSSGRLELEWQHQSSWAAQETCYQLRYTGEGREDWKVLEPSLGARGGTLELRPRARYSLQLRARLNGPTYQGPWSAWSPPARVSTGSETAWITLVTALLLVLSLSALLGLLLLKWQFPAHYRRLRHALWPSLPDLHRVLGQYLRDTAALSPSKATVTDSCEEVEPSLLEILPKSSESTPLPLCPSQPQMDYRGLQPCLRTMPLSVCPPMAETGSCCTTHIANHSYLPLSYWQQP

[2] = target: T2, cynomolgus monkey Mp1 expressed on CHO cells (CHO-monkey Mp1) (cynomolgus monkey, UniProt P40238 26-635 (human entry)); test: flow cytometry on CHO cells expressing Mp1
T2 construct: also called monkey Mp1-expressing CHO cell line
T2 chain: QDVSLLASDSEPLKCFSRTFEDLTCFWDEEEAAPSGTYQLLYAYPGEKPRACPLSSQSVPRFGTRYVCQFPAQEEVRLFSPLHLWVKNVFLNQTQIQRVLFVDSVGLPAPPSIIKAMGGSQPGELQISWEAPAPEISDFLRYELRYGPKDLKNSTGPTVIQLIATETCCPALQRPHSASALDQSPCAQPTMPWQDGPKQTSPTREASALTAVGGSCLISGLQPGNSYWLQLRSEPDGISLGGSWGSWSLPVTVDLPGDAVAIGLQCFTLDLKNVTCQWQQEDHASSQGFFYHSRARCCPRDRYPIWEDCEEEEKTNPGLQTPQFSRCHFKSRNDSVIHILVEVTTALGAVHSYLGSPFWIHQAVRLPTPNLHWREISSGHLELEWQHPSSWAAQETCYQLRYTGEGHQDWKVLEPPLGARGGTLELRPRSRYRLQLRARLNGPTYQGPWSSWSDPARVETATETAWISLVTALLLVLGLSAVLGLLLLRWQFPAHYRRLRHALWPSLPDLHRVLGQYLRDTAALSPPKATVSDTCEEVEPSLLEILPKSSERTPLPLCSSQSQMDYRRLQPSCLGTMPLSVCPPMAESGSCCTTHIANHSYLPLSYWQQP

[3] = target: T3, human Mp1-IgG Fc fusion protein (human, UniProt P40238 26-491); test: SPR (Biacore 2000), hMp1-Fc amine-coupled to CM5 chip, VB22B IgG injected at 1.25 to 20 ug/mL
T3 construct: range 26-491; Expressed in CHO-DG44 with a 19-amino acid signal peptide from a human IgG H chain variable region, left out here; also called hMp1-Fc; hMPL-Fc; not shown: Fc region of human IgG-gamma1 (a region downstream of Asp 216)
T3 sequence: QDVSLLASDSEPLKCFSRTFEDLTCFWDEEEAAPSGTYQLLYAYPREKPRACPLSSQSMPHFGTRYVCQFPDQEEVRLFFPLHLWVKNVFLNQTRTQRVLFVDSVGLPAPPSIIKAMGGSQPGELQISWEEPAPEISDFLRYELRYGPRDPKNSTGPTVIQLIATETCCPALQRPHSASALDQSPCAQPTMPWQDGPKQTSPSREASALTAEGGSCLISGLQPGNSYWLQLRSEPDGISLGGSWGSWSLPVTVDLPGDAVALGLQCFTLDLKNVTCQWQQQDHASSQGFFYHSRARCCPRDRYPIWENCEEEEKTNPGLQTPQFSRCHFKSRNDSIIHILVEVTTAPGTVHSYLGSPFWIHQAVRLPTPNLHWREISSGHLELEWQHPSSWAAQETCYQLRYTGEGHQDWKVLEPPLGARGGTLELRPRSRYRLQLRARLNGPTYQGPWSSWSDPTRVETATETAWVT
Experimental: Since the anti-human Mp1 antibody VB22B binds to soluble recombinant Mp1, kinetic analyses of the antigen-antibody reaction between VB22B IgG and human Mp1-IgG Fc fusion protein were carried out as described in Example 1.4. The Sensor Chip CM5 (Biacore) was placed in Biacore 2000 (Biacore), and human Mp1-IgG Fc fusion protein was immobilized onto the chip by amine-coupling methods. Then, 1.25 to 20 μg/mL of VB22B IgG solution was prepared using HBS-EP Buffer (Biacore), and injected over the chip surface for 2 min to reveal the binding region. Then, HBS-EP Buffer was injected over the chip surface for 2 min to reveal the dissociation region. VB22B IgG bound to the human Mp1-IgG Fc fusion protein on the sensor chip was removed by injecting 10 mM NaOH over the sensor chip for 15 sec, and the chip was recovered. HBS-EP Buffer was used as the running buffer, and the flow rate was 20 μL/min. Using the BIAevaluation Version 3.1 (Biacore) software, the reaction rate constant at each concentration was calculated from the sensorgrams.

[4] = target: T4, GST fusion protein containing MG3 (Gln26 to Ala189) of human Mp1 (human, UniProt P40238 26-189); test: Western blotting of GST fusion proteins
T4 construct: range 26-189; not shown: glutathione S-transferase (GST) encoded by vector pGEX-4T-3 (Amersham Biosciences)
T4 sequence (looked up): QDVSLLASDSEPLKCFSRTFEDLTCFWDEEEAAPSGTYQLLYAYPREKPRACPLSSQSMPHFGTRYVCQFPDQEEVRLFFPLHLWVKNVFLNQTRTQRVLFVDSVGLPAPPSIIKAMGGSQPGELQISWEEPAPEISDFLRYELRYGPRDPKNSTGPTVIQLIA
Experimental: (§1) Since the anti-human Mp1 antibody VB22B can be used for Western blotting, a GST-fusion protein containing a partial sequence of human Mp1 was constructed for VB22B epitope analysis. MG1 (Gln26 to Trp491) and MG2 (Gln26 to Leu274) regions were each amplified by PCR, and cloned into pGEX-4T-3 (Amersham Biosciences) to be expressed as GST fusion proteins. The resulting plasmid DNAs were transformed into DH5α to give transformants. A final concentration of 1 mM IPTG was added to the transformants in their logarithmic growth phase to induce the expression of GST fusion proteins. The bacterial cells were harvested after two hours of incubation. The cells were lysed by sonication. The lysates were centrifuged in XL-80 Ultracentrifuge (Beckman, Rotor 70.1Ti) at 35,000 rpm for 30 min. The culture supernatants were removed, and then the fusion proteins were purified using GST Purification Modules (Amersham Biosciences). The samples were separated by 10%-SDS-PAGE, and then transferred onto a PVDF membrane. The membrane was analyzed by the murine antibody VB22B in Western blotting.
(§2) Then, GST fusion proteins containing the respective regions of human Mp1: MG3 (Gln26 to Ala189), MG4 (Gln26 to Pro106), MG5 (Gln26 to Glu259), and MG6 (Gln26 to Gly245) were prepared and analyzed by Western blotting using the same procedure described above. […] In addition, GST was fused with MG7 (Gln26 to Ala231) and MG8 (Gln26 to Pro217) to prepare GST fusion proteins.

[5] = target: T5, GST fusion protein containing MG8 (Gln26 to Pro217) of human Mp1 (human, UniProt P40238 26-217); test: Western blotting of GST fusion proteins
T5 construct: range 26-217; not shown: glutathione S-transferase (GST) encoded by vector pGEX-4T-3 (Amersham Biosciences)
T5 sequence (looked up): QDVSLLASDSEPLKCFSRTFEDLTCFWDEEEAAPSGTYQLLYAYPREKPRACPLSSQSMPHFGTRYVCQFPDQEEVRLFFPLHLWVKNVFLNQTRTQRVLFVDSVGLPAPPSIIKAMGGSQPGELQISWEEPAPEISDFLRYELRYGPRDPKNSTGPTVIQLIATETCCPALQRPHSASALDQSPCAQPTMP
Experimental: as §1, §2

[6] = target: T6, GST fusion protein containing MG4 (Gln26 to Pro106) of human Mp1 (human, UniProt P40238 26-106); test: Western blotting of GST fusion proteins
T6 construct: range 26-106; not shown: glutathione S-transferase (GST) encoded by vector pGEX-4T-3 (Amersham Biosciences)
T6 sequence (looked up): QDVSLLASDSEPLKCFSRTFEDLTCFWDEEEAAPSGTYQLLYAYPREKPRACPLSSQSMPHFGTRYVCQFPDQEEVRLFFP
Experimental: as §1, §2

[7] = target: T2, cynomolgus monkey Mp1 expressed on CHO …; test: flow cytometry on CHO cells expressing Mp1, detection with anti-FLAG M2 and FITC anti-mouse IgG
Experimental: (§3) CHO-human Mp1, CHO-monkey Mp1, and CHO-mouse Mp1 cells were recovered and suspended in FACS buffer (1% FBS/PBS) to a final concentration of 1×10⁶ cells/mL. Cell suspensions were aliquoted at 100-μL/well into the Multiscreen-HV Filter Plates (Millipore). After centrifugation, the supernatant was removed. An appropriate concentration of diabody or sc(Fv)2 was added into each well and incubated on ice for 30 min. The cells were washed once with 200 μL of FACS buffer, and incubated on ice for 30 min following the addition of 10 μg/mL ANTI-FLAG® M2 Monoclonal Antibody (Sigma-Aldrich). The cells were then washed once with 200 μL of FACS buffer, and a 100×-diluted FITC-labeled anti-mouse IgG antibody (Beckman Coulter) was added to the plate. The plate was incubated on ice for 30 min. After centrifugation, the supernatant was removed. The cells were suspended in 400 μL of FACS Buffer, and then analyzed by flow cytometry using EPICS ELITE ESP (Beckman Coulter). An analysis gate was set on the forward and side scatters of a histogram to include viable cell populations.
(§4) The binding activity of the purified VB22B sc(Fv)2 to various Mp1 molecules expressed in CHO cells was determined.

[8] = target: T7, human Mp1 expressed on CHO cells (CHO-human Mp1) (human, UniProt P40238 26-635); test: as above
T7 construct: whole, on cells; also called human Mp1-expressing CHO cell line
T7 sequence (looked up): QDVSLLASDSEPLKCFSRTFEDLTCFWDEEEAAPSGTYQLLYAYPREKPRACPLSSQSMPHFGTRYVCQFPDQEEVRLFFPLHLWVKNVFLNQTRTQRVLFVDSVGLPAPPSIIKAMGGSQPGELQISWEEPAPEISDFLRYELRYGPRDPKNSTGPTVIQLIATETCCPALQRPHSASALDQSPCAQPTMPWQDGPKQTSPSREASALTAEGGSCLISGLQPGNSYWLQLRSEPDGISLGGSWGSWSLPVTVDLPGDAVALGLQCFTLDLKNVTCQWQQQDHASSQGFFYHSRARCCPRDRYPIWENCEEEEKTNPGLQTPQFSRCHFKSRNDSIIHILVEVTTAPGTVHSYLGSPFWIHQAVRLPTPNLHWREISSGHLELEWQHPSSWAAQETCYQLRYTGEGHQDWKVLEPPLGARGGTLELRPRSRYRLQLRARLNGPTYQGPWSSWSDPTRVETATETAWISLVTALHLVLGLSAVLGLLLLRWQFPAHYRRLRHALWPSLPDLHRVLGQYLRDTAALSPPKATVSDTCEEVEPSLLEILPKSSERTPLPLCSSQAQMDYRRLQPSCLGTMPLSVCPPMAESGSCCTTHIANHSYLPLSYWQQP
Experimental: as §3, §4

binding result [1]: no binding | binding result [2]: binds | Kd [3]: 1.67 nM | binding result [4]: no binding | binding result [5]: no binding | binding result [6]: no binding
B1: anti-human Mp1 antibody VB22B (VB22B IgG) (antibody, V domains shown)
VH: QVQLQQSGPELVKPGASVKISCKASGYAFTNSWMNWVKQRPGKGLEWIGRIYPGDGETIYNGKFRVKATLTADKSSSTAYMDISSLTSEDSAVYFCARGYDDYSFAYWGQGTLVTVSA
VL: DIVMTQAAPSIPVTPGESVSISCRSSKSLLHSNGNTYLYWFLQRPGQSPQLLIYRMSNLASGVPDRFSGSGSGTAFTLRISRVEAEDVGVYYCMQHIEYPFTFGSGTKLEIK
notes: Mouse monoclonal IgG purified from hybridoma supernatant; They were cloned with primers complementary to the mouse IgG2b and kappa constant regions; also called murine antibody VB22B

binding result [7]: binds | binding result [8]: binds | binding result [1]: no binding
B2: Murine VB22B sc(Fv)2 (scFv)
scFv: QVQLQQSGPELVKPGASVKISCKASGYAFTNSWMNWVKQRPGKGLEWIGRIYPGDGETIYNGKFRVKATLTADKSSSTAYMDISSLTSEDSAVYFCARGYDDYSFAYWGQGTLVTVSAGGGGSGGGGSGGGGSDIVMTQAAPSIPVTPGESVSISCRSSKSLLHSNGNTYLYWFLQRPGQSPQLLIYRMSNLASGVPDRFSGSGSGTAFTLRISRVEAEDVGVYYCMQHIEYPFTFGSGTKLEIKGGGGSGGGGSGGGGSQVQLQQSGPELVKPGASVKISCKASGYAFTNSWMNWVKQRPGKGLEWIGRIYPGDGETIYNGKFRVKATLTADKSSSTAYMDISSLTSEDSAVYFCARGYDDYSFAYWGQGTLVTVSAGGGGSGGGGSGGGGSDIVMTQAAPSIPVTPGESVSISCRSSKSLLHSNGNTYLYWFLQRPGQSPQLLIYRMSNLASGVPDRFSGSGSGTAFTLRISRVEAEDVGVYYCMQHIEYPFTFGSGTKLEIK
notes: Single chain sc(Fv)2, VH-(Gly4Ser)3-VL-(Gly4Ser)3-VH-(Gly4Ser)3-VL, with a FLAG tag (detected with anti-FLAG M2); also called mVB22B
